For this assay, the target named is human CXCR2 (human) (UniProt P25025). Briefly: cell-based or functional assay.
Chain of human CXCR2 (human) (P25025 whole entry): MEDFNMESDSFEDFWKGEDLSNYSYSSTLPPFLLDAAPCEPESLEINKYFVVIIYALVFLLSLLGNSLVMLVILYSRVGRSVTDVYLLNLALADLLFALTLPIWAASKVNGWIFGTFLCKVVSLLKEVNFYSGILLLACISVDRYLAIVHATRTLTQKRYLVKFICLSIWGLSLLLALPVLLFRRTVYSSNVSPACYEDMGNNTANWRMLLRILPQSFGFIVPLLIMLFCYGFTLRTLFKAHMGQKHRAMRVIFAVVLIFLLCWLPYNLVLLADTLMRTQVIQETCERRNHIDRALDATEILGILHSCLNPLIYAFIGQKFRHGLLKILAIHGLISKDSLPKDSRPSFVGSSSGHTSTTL

B1: human CXCL7 (ligand, UniProt P02775 59-128, looked up)
chain: AELRCMCIKTTSGIHPKNIQSLEVIGKGTHCNQVEVIATLKDGRKICLDPDAPRIKKIVQKKLAGDESAD
In the case of B1, the EC50 mean, Tango assay amounted to 39.6 nM and the EC50 mean, calcium flux assay stood at 7.14 nM.

Source of the values: patent publication US20240301076A1.
